In IntAct's records for PubMed 24012335:

B1: Merlin (Homo sapiens), P35240 (parent)
chain: MAGAIASRMSFSSLKRKQPKTFTVRIVTMDAEMEFNCEMKWKGKDLFDLVCRTLGLRETWFFGLQYTIKDTVAWLKMDKKVLDHDVSKEEPVTFHFLAKFYPENAEEELVQEITQHLFFLQVKKQILDEKIYCPPEASVLLASYAVQAKYGDYDPSVHKRGFLAQEELLPKRVINLYQMTPEMWEERITAWYAEHRGRARDEAEMEYLKIAQDLEMYGVNYFAIRNKKGTELLLGVDALGLHIYDPENRLTPKISFPWNEIRNISYSDKEFTIKPLDKKIDVFKFNSSKLRVNKLILQLCIGNHDLFMRRRKADSLEVQQMKAQAREEKARKQMERQRLAREKQMREEAERTRDELERRLLQMKEEATMANEALMRSEETADLLAEKAQITEEEAKLLAQKAAEAEQEMQRIKATAIRTEEEKRLMEQKVLEAEVLALKMAEESERRAKEADQLKQDLQEAREAERRAKQKLLEIATKPTYPPMNPIPAPLPPDIPSFNLIGDSLSFDFKDTDMKRLSMEIEKEKVEYMEKSKHLQEQLNELKTEIEALKLKERETALDILHNENSDRGGSSKHNTIKKLTLQSAKSRVAFFEEL
partner: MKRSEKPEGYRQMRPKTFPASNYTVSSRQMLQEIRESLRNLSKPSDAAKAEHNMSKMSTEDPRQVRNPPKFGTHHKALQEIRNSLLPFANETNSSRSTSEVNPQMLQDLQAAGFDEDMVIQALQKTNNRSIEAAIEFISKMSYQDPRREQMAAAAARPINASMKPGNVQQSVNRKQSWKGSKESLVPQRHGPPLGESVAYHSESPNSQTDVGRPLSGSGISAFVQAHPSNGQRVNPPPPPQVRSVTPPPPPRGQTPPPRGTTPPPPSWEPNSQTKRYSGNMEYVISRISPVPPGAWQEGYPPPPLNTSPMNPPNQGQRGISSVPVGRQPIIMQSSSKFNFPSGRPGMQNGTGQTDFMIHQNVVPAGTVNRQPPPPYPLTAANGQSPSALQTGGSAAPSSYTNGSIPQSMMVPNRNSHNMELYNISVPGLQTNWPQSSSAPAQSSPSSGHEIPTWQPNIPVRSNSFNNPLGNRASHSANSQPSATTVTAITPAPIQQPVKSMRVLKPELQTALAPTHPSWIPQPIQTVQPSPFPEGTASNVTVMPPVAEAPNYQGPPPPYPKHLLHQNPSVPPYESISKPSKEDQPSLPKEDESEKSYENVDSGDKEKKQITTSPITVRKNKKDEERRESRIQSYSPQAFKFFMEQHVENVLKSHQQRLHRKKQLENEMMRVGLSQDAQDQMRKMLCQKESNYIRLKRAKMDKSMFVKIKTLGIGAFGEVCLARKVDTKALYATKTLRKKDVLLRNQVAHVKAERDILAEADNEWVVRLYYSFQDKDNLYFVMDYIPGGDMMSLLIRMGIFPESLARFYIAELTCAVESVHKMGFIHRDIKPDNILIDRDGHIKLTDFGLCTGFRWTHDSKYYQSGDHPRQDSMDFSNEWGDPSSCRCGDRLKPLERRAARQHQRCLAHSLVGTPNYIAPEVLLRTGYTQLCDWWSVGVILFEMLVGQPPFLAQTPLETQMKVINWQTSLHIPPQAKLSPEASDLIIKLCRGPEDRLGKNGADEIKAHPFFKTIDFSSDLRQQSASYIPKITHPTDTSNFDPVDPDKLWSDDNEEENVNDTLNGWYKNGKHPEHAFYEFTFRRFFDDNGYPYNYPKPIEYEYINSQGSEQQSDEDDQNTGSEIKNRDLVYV
B2: Serine/threonine-protein kinase Warts (Drosophila melanogaster (Fruit fly)), Q9VA38 (parent)
chain: MHPAGEKRGGRPNDKYTAEALESIKQDLTRFEVQNNHRNNQNYTPLRYTATNGRNDALTPDYHHAKQPMEPPPSASPAPDVVIPPPPAIVGQPGAGSISVSGVGVGVVGVANGRVPKMMTALMPNKLIRKPSIERDTASSHYLRCSPALDSGAGSSRSDSPHSHHTHQPSSRTVGNPGGNGGFSPSPSGFSEVAPPAPPPRNPTACSAATPPPPVPPTSQAYVKRRSPALNNRPPAIAPPTQRGNSPVITQNGLKNPQQQLTQQLKSLNLYPGGGSGAVVEPPPPYLIQGGAGGAAPPPPPPSYTASMQSRQSPTQSQQSDYRKSPSSGIYSATSAGSPSPITVSLPPAPLAKPQPRVYQARSQQPIIMQSVKSTQVQKPVLQTAVAPQSPSSASASNSPVHVLAAPPSYPQKSAAVVQQQQQAAAAAHQQQHQHQQSKPPTPTTPPLVGLNSKPNCLEPPSYAKSMQAKAATVVQQQQQQQQQQQQVQQQQVQQQQQQQQQQLQALRVLQAQAQRERDQRERDQRERERDQQKLANGNPGRQMLPPPPYQSNNNNNSEIKPPSCNNNNIQISNSNLATTPPIPPAKYNNNSSNTGANSSGGSNGSTGTTASSSTSCKKIKHASPIPERKKISKEKEEERKEFRIRQYSPQAFKFFMEQHIENVIKSYRQRTYRKNQLEKEMHKVGLPDQTQIEMRKMLNQKESNYIRLKRAKMDKSMFVKLKPIGVGAFGEVTLVSKIDTSNHLYAMKTLRKADVLKRNQVAHVKAERDILAEADNNWVVKLYYSFQDKDNLYFVMDYIPGGDLMSLLIKLGIFEEELARFYIAEVTCAVDSVHKMGFIHRDIKPDNILIDRDGHIKLTDFGLCTGFRWTHNSKYYQENGNHSRQDSMEPWEEYSENGPKPTVLERRRMRDHQRVLAHSLVGTPNYIAPEVLERSGYTQLCDYWSVGVILYEMLVGQPPFLANSPLETQQKVINWEKTLHIPPQAELSREATDLIRRLCASADKRLGKSVDEVKSHDFFKGIDFADMRKQKAPYIPEIKHPTDTSNFDPVDPEKLRSNDSTMSSGDDVDQNDRTFHGFFEFTFRRFFDDKQPPDMTDDQAPVYV
partner: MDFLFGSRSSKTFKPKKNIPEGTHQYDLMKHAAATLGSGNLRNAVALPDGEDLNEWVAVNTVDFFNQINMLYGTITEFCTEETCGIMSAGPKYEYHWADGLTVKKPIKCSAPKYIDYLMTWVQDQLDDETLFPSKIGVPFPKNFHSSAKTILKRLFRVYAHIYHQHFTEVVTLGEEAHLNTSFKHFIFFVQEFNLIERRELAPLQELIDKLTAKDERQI
B3: Serine/threonine-protein kinase LATS1 (Homo sapiens), O95835 (parent)
chain: B1 partner
B4: Serine/threonine-protein kinase Warts (Drosophila melanogaster (Fruit fly)), Q9VA38 (parent)
chain: B2 chain
partner: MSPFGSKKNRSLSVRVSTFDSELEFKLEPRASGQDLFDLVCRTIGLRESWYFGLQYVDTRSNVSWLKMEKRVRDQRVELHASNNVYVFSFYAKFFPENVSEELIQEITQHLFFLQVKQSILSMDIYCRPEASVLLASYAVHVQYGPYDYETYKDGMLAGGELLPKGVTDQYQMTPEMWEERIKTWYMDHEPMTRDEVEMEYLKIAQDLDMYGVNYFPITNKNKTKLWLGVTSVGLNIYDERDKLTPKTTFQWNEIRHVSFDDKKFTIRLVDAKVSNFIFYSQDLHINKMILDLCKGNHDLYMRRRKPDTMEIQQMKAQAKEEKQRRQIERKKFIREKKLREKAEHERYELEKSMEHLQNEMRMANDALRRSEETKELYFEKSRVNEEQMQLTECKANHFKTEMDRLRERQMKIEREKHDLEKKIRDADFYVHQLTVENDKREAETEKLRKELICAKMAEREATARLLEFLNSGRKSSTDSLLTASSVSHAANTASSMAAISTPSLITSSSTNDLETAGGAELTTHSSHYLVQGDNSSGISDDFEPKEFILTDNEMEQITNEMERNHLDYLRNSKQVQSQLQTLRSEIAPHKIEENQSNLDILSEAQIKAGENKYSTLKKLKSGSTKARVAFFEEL

Variants of: B1
Conditions: with lats1_human LATS1, O95835

effect of a mutation on the interaction	Variant
disrupting interaction strength	L46R
disrupting interaction strength	L141P
disrupting interaction strength	L64P
disrupting interaction strength	F62S

Variants of: B2
Conditions: with mob1_drome mats

effect of a mutation on the interaction	Variant
disrupting interaction strength	R708A

Variants of: B3
Conditions: with merl_human NF2, P35240

effect of a mutation on the interaction	Variant
disrupting interaction strength	A77P;I81T;L85P

Variants of: B3
Conditions: with NF2, P35240-1

effect of a mutation on the interaction	Variant
disrupting interaction strength	A77P;I81T;L85P

Variants of: B4
Conditions: with merh_drome Mer

effect of a mutation on the interaction	Variant
disrupting interaction strength	A20P;I24T;L28P
